These results are taken from US20220372138A1 (IOMX THERAPEUTICS, published 2022).

Bounds are passed on as bounds.

Experiment [1] deals with T1, full-length ECD of human IGSF11 fused to murine Fc (human, UniProt Q5DX21 23-241).
T1 construct: also called Fc-fusion IGSF11 ECD; not shown: murine Fc
T1 sequence: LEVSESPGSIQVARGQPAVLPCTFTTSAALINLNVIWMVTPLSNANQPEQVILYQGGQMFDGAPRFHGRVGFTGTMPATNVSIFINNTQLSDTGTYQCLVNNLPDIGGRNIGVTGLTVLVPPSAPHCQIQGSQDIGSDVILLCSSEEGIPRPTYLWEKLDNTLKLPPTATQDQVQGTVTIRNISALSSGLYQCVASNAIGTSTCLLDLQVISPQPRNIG
Put plainly: IgG ELISA.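 Also: ELISA binding of IgG antibodies to plate-coated IGSF11 Fc-fusion proteins (full-length ECD, IgV or IgC2 domain), detected via HRP-labelled anti-human IgG with TMB development.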

In experiment [2] the target is T2, IgV domain of human IGSF11 fused to murine IgG2a Fc (human, UniProt Q5DX21 23-143).
T2 construct: not shown: murine IgG2a Fc-region
T2 sequence: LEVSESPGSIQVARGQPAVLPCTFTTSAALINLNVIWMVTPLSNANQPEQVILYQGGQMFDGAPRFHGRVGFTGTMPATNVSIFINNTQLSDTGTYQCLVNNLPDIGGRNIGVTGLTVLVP
Put plainly: IgG ELISA.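 Also: ELISA binding of IgG antibodies to plate-coated IGSF11 Fc-fusion proteins (full-length ECD, IgV or IgC2 domain), detected via HRP-labelled anti-human IgG with TMB development.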

Experiment [3] deals with T3, human IGSF11 (VSIG3) expressed on cells (human, UniProt Q5DX21 23-431).
T3 sequence: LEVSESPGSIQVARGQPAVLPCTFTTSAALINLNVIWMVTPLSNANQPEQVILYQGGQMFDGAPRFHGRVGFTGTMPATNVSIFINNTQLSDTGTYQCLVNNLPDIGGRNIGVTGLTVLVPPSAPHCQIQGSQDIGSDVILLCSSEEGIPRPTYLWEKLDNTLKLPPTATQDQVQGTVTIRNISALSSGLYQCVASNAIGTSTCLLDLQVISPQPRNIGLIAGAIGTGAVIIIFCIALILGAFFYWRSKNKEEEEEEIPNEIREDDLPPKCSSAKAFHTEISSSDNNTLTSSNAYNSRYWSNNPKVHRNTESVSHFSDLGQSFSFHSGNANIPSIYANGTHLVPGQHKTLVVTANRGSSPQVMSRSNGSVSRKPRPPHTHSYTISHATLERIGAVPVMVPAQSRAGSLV
Put plainly: FACS, DMS 273 cells with scrambled control siRNA (SC).

The target of experiment [4] is T3, human IGSF11 (VSIG3) expressed on cells. Nature of the experiment: FACS, M579-A2-luc cells with scrambled control siRNA (SC).
Experiment [5] shares this target. Nature of the experiment: FACS, DMS 273 cells with IGSF11 siRNA (KD, knock-down control).
The target is the same in experiment [6]. Put plainly: FACS, M579-A2-luc cells with IGSF11 siRNA (KD, knock-down control).
In experiment [7] the target is T4, extracellular domain (ECD) of human IGSF11 (VSIG3), recombinant (human, UniProt Q5DX21 23-241).
T4 construct: biotinylated where captured on streptavidin; tags of the reagent not always stated; also called IGSF11 (ECD domain); ECD-IGSF11
T4 sequence: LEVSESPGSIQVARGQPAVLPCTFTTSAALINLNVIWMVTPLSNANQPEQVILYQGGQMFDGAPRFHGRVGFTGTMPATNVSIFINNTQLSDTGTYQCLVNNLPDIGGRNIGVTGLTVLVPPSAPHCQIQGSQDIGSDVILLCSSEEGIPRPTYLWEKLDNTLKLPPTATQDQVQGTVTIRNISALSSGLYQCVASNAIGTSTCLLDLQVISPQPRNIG
Put plainly: ELISA RFU 0.5-1.0.

Experiment [8] has as its target T5, ECD of murine IGSF11, recombinant biotinylated (mouse, UniProt P0C673 23-240).
T5 construct: whole entry named; also called Mouse IGSF11
T5 sequence: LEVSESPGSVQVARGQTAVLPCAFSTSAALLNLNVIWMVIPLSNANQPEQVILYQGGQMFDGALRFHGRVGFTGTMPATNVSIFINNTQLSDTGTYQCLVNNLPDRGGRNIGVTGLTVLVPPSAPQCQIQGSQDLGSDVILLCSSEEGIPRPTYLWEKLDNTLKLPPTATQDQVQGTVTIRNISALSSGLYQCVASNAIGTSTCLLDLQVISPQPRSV
Put plainly: ELISA RFU 0.5-1.0.

Experiment [9] concerns the target T5, ECD of murine IGSF11, recombinant …. Nature of the experiment: Fab ELISA.
Protocol: (§1) In order to identify IGSF11-specific binding ABPs, monoclonal Fabs expressed from E. coli were generated from the enriched set of anti-IGFS11 antibody-expressing phage. After bacterial lysis, the Fabs were tested for their binding properties and cross-reactivity profile on recombinant ECD-IGSF11 (human, mouse and cynomolgus monkey) by standard ELISA. Briefly, biotinylated recombinant ECD-IGSF11 from human, mouse, or cynomolgus monkey were immobilized at 2 ug/mL on a streptavidin-coated 384-well Maxisorp plate. The surface was blocked with 2% (w/v) skim milk powder in PBST. After three wash cycles with PBST, a bacterial lysate of each of the anti-IGSF11 Fabs in 2% (w/v) skim milk powder was applied to the immobilized IGSF11 and incubated for 1 h. After removing all unbound Fab by 3 wash cycles with PBST, bound Fab antibodies were detected with a goat anti-human Fab antibody conjugated with horseradish peroxidase. After three wash cycles with PBST the ELISA was developed with TMB substrate.
The target in the next experiment is Streptavidin (UniProt P22629 37-163, limits assumed). Put plainly: Fab ELISA.
The target in experiment [10] is T6, human IGSF11 (VSIG3) ECD, His-tagged (human, UniProt Q5DX21 23-241).
T6 construct: in part bought (SinoBiological 13094-H08H); also called HIS-IGSF11; IGSF11-HIS; not shown: His tag
T6 sequence: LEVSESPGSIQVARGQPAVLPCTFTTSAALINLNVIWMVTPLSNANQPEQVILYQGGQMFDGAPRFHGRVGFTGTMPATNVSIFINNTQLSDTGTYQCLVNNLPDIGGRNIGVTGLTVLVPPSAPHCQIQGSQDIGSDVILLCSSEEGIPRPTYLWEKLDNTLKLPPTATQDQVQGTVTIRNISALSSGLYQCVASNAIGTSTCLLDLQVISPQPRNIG
Nature of the experiment: IgG1 ELISA EC50 <0.02 nM.

Sequence of Streptavidin (P22629 37-163 limits assumed): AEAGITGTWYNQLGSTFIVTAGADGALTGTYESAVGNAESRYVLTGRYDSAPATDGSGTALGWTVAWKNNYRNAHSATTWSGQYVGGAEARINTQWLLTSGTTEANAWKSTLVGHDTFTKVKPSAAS
Protocol for Streptavidin: as §1

B1: C-008 (IgG1 format) (antibody, V domains shown)
VH: EVQLLESGGGLVQPGGSLRLSCAASGFTFSSYAMSWVRQAPGKGLEWVSAISGSGGSTYYADSVKGRFTISRDNSKNTLYLQMNSLRAEDTAVYYCTTDNGHNRDWGQGTLVTVSS
VL: ASVLTQPPSVSAAPGQKVTISCSGSSSNIGNNYVSWYQQLPGTAPKLLIYDNNKRPSGIPDRFSGSKSGTSATLGITGLQAEDEADYYCGTWTRSSGVFGGGTKLTVL
Turning to B1, the EC50 in [1] and in experiment [2] was under 1 nM in each case.

B2: A-015 (IgG1 format) (antibody, V domains shown)
VH: not shown
VL: QPVLTQSPSASASLGASVKLTCTLSSGHTNYAIAWRQQQPGKAPRYLMLLNSDGSHTRGGGIPDRFSGSSSGAERYLTISSLQSEDEADYYCMIWHNNAWVFGGGTKLAVL
notes: human IgG1 format
Turning to B2, the “% binding (FACS heat-map)” value was 5.97% in experiment [3], 1.17% in experiment [4], 1.6% in [5] and 1.3% in experiment [6].

B3: A-015 (scFv format) (scFv, V domains shown)
VH: not shown
VL: QPVLTQSPSASASLGASVKLTCTLSSGHTNYAIAWRQQQPGKAPRYLMLLNSDGSHTRGGGIPDRFSGSSSGAERYLTISSLQSEDEADYYCMIWHNNAWVFGGGTKLAVL
notes: scFv
With B3, the “ELISA binding signal (RFU)” value in experiment [7] and in experiment [8] was 0.5 to 1 rfu in each case.

B4: C-026 (IgG1 format) (antibody, V domains shown)
VH: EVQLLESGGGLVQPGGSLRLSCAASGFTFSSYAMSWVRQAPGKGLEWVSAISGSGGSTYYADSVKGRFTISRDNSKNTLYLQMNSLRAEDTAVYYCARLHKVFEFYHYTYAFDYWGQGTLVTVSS
VL: ASVLTQPPSVSAAPGQKVTISCSGSSSNIGNNYVSWYQQLPGTAPKLLIYDNNKRPSGIPDRFSGSKSGTSATLGITGLQAEDEADYYCASYSSETSGWVFGGGTKLTVL
On to B4, for which the results for the EC50 in experiment [1] and in experiment [2] were 1 to 20 nM and under 1 nM, respectively.

B5: C-021 (Fab format) (Fab, V domains shown)
VH: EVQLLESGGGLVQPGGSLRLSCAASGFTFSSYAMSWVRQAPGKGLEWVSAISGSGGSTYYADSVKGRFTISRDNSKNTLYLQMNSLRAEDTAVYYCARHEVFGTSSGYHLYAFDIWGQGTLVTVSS
VL: DIQMTQSPSSLSASVGDRVTITCRASQSISSYLNWYQQKPGKAPKLLIYAASSLQSGVPSRFSGSGSGTDFTLTISSLQPEDFATYYCQQWSGLPLTFGQGTKVEIK
notes: Fab from E. coli lysate
Take B5: the A450 in experiment [9] is under 1; with Streptavidin, under 0.1.

B6: C-025 (IgG1 format) (antibody, V domains shown)
VH: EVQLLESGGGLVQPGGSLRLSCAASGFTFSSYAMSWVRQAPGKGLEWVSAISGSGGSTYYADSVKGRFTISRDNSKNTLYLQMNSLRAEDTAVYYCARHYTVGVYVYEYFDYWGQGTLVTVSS
VL: SYELTQPPSVSVSPGQTASITCSGDKLGDKYASWYQQKPGQSPVLVIYQDSKRPSGIPERFSGSNSGNTATLTISGTQAEDEADYYCQSYATAGFVFGGGTKLTVL
Take B6: the EC50 in experiment [1] is 1 to 20 nM; in [2] it was under 1 nM.

B7: A-001 (IgG1 format) (antibody, V domains shown)
VH: EVQLVESGGGLVKPGGSLRLSCAASGFTFSSYSMNWVRQAPGKGLEWVSSISSSSSYIYYADSVKGRFTISRDNAKNSLYLQMNSLRAEDTAVYYCVRSIIVQALGITSVFDIWGQGTMVTVSS
VL: AIRLTQSPSSLSASVGDRVTISCRASQIISNHLNWYQQKPGKAPKLLIYAASRLQTGVPSRFSGSGSETDYTLTISSLQPEDFATYYCQQSYSNPRTFGHGTKVEIK
notes: human IgG1 format
For B7, the EC50 in [10] is under 0.02 nM.

B8: C-023 (Fab format) (Fab, V domains shown)
VH: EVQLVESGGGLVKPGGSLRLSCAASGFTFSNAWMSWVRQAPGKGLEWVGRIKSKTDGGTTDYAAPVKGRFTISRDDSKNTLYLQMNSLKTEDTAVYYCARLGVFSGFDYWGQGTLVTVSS
VL: SYELTQPPSVSVSPGQTASITCSGDKLGDKYASWYQQKPGQSPVLVIYQDSKRPSGIPERFSGSNSGNTATLTISGTQAEDEADYYCHTWTHHSLAVVFGGGTKLTVL
notes: Fab from E. coli lysate
As to B8, the results for the A450 (in [9]; in the experiment with Streptavidin) were under 1 and under 0.1, respectively.

B9: C-024 (IgG1 format) (antibody, V domains shown)
VH: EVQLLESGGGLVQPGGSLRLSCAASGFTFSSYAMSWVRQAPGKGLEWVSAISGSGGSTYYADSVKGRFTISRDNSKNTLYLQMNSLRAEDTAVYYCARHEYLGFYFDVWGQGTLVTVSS
VL: SYELTQPPSVSVSPGQTASITCSGDKLGDKYASWYQQKPGQSPVLVIYQDSKRPSGIPERFSGSNSGNTATLTISGTQAEDEADYYCLASHRLTLNYVFGGGTKLTVL
In the case of B9, the concentration for a half-maximal effect (EC50) in experiment [1] and in experiment [2] was 1 to 20 nM each time.

B10: C-015 (Fab format) (Fab, V domains shown)
VH: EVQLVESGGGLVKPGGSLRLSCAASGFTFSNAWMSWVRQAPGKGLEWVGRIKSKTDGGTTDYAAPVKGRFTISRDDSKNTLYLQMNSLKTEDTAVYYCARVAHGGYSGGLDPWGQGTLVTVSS
VL: SYELTQPPSVSVSPGQTASITCSGDKLGDKYASWYQQKPGQSPVLVIYQDSKRPSGIPERFSGSNSGNTATLTISGTQAEDEADYYCSSTGTAHTLAVFGGGTKLTVL
notes: Fab from E. coli lysate
Take B10: the figures for the A450 (in experiment [9]; with Streptavidin) were under 1 and under 0.1, respectively.

B11: C-009 (IgG1 format) (antibody, V domains shown)
VH: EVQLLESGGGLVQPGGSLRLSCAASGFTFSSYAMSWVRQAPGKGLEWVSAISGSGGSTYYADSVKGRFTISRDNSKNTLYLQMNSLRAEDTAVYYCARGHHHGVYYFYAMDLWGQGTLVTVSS
VL: SYELTQPPSVSVSPGQTASITCSGDKLGDKYASWYQQKPGQSPVLVIYQDSKRPSGIPERFSGSNSGNTATLTISGTQAEDEADYYCQSYSGSSTLHVFGGGTKLTVL
As to B11, the concentration giving a half-maximal response (EC50) in [1] was 1 to 20 nM; in [2], under 1 nM.

B12: A-016 (IgG1 format) (antibody, V domains shown)
VH: QVQLQESGAEVKKPGASVKVSCKASGYTFTGYYMHWVRQAPGQGLEWMGGIIPIFGTANYAQKFQGRVTITADESTSTAYMELSSLRSEDTAVYYCAGAGMELTRSGAYYYYGMDVWGQGTTVTVSS
VL: QSALTQPASVSGSPGQSITISCTGTSSDIGGYTFVSWYQQHPGKAPKVMIHDVNNRPSGISNRFSGSKSGNTASLTISGLQAEDEADYYCSSVTSTNTYVFGTGTKVTVL
notes: human IgG1 format
B12: the EC50 in experiment [10] was under 0.02 nM.

B13: A-007 (scFv format) (scFv, V domains shown)
VH: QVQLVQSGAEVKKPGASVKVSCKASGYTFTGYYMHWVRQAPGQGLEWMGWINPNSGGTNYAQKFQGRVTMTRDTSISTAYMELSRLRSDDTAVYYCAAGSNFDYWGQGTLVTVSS
VL: QSALTQPASVSGSPGQSITIACTGSSSDIGSFSYVSWYQQRPGKAPTLIIYGVNNRPLGVSRRFSGSKSGNTASLSISGLQAEDEADYYCSSYTRRSTVIFGGGTKLTVL
notes: scFv
On to B13, for which the “ELISA binding signal (RFU)” value in experiment [7] and in experiment [8] was 0.5 to 1 rfu throughout.

B14: A-010 (scFv format) (scFv, V domains shown)
VH: QVQLVQSGAEVKKPGASVKVSCKASGYTFTSYGISWVRQAPGQGLEWMGWISAYNGNTNYAQKLQGRVTMTTDTSTSTAYMELRSLRSDDTAVYYCARVPAWSGQFDYWGQGTLVTVSS
VL: QSALTQPASVSGSPGQSITISCTGSSSDVGGYNYVSWYQQYPGKAPKLMIYDVRSRPSGVSNRFSGSKSGNTASLTISGLQAEDEADYYCTSYTSSNTLVIFGGGTKVTVL
notes: scFv
Consider B14, for which the “ELISA binding signal (RFU)” value in experiment [7] and in experiment [8] was 0.5 to 1 rfu in each case.

B15: A-006 (scFv format) (scFv, V domains shown)
VH: EVQLVESGGGLIQPGGSLRLSCAASGFTVSSNYMSWVRQAPGKGLEWVSVIYSGGSTYYADSVKGRFTISRDNSKNTLYLQMNSLRAEDTAVYYCARGNPYYYGDLQVNFDYWGQGTLVTVSS
VL: QAVVTQEPSLTVSPGGTVTLTCASSTGAVTSGYYPNWFQQKPGQAPRPLIYSTSNKHSWTPARFSGSLLGGKAALTLSGVQPDDEAEYYCLLYYGGDWVFGGGTKLTVL
notes: scFv
As for B15, the “ELISA binding signal (RFU)” value in [7] and in experiment [8] was 0.5 to 1 rfu each time.

B16: A-012 (scFv format) (scFv, V domains shown)
VH: EVQLLESGGGLIQPGGSLRLSCAVSGFTVSSNYMSWVRQAPGKGLEWVSVIYSGGSTYYADSVKGRFTISRDNSKNTLYLQMNSLRAEDTAVYYCARGNPYYYGDLQVNFDYWGQGTLVTVSS
VL: QAVVTQEPSLTVSPGGTVTLTCASSTGAVTSGYYPNWFQQKPGQAPRALIYSTSNKHSWTPARFSGSLLGGKAALTLSGVQPEDEAEYYCLLYYGGAWVFGGGTKLTVL
notes: scFv
Regarding B16, the “ELISA binding signal (RFU)” value in [7] and in experiment [8] was 0.5 to 1 rfu in each case.

B17: A-013 (scFv format) (scFv, V domains shown)
VH: EVQLVESGGGLIQPGGSLRLSCAASGFTVSSNYMSWVRQAPGKGLEWVSVIYSGGSTYYADSVKGRFTISRDNSKNTLYLQMNSLRAEDTAVYYCARGNPYYYGDLQVNFDYWGQGTLVTVSS
VL: QAVVTQEPSLTVSPGGTVTLTCASSTGAVTSAYYPNWFQQKPGQAPRALIYSTSNKHSWTPARFSGSLLGGKAALTLSGVQPEDEADYYCLLYYGGAWVFGGGTKLTVL
notes: scFv
Consider B17, for which the “ELISA binding signal (RFU)” value in experiment [7] and in [8] was 0.5 to 1 rfu each time.
